Test results reported in PMC4597782 (Nature, 2015).

Biological target: the molecule itself
Test: single-molecule pull-down

B1: mGluR2-GFP (receptor)
chain: EGPAKKVLTLEGDLVLGGLFPVHQKGGPAEECGPVNEHRGIQRLEAMLFALDRINRDPHLLPGVRLGAHILDSCSKDTHALEQALDFVRASLSRGADGSRHICPDGSYATHSDAPTAVTGVIGGSYSDVSIQVANLLRLFQIPQISYASTSAKLSDKSRYDYFARTVPPDFFQAKAMAEILRFFNWTYVSTVASEGDYGETGIEAFELEARARNICVATSEKVGRAMSRAAFEGVVRALLQKPSARVAVLFTRSEDARELLAATQRLNASFTWVASDGWGALESVVAGSERAAEGAITIELASYPISDFASYFQSLDPWNNSRNPWFREFWEERFHCSFRQRDCAAHSLRAVPFEQESKIMFVVNAVYAMAHALHNMHRALCPNTTHLCDAMRPVNGRRLYKDFVLNVKFDAPFRPADTDDEVRFDRFGDGIGRYNIFTYLRAGSGRYRYQKVGYWAEGLTLDTSFIPWASPSAGPLPASRCSEPCLQNEVKSVQPGEVCCWLCIPCQPYEYRLDEFTCADCGLGYWPNASLTGCFELPQEYIRWGDAWAVGPVTIACLGALATLFVLGVFVRHNATPVVKASGRELCYILLGGVFLCYCMTFVFIAKPSTAVCTLRRLGLGTAFSVCYSALLTKTNRIARIFGGAREGAQRPRFISPASQVAICLALISGQLLIVAAWLVVEAPGTGKETAPERREVVTLRCNHRDASMLGSLAYNVLLIALCTLYAFKTRKCPENFNEAKFIGFTMYTTCIIWLAFLPIFYVTSSDYRVQTTTMCVSVSLSGSVVLGCLFAPKLHIILFQPQKNVVSHRAPTSRFGSAAPRASANLGQGSGSQFVPTVCNGREVVDSTTSSL
stoichiometry N: 2
